Test results: patent US8388937B2, “Specific peptide binding to glypican-3” (Kyungpook National University Industry—Academic Cooperation …, priority 2009, dated 2013)
Where no end group is shown, it is not given here. The star is where a group is joined. FITC = O=C1OC2(c3ccc(O)cc3Oc3cc(O)ccc32)c2ccc(NC(=S)*)cc21

What was measured:
Format in all cases: cell-based
[1] = tested on: renal cell lines in which GPC-3 protein was not expressed (HEK-293, Cos-7); assay: Overlay assay of FITC-labeled peptide on cells in which GPC-3 protein was not expressed
Procedure: (§1) The peptide synthesized in Example 8 was subjected to an overlay assay. First, the human hepatocellular carcinoma cells (HepG2, Huh-7) and the renal cell (HEK293) were cultured to about 1×10^5 in an 8-well chamber slide, followed by washing three times with PBS for three min. In order to prevent non-specific reactions, a reaction was performed in Opti-MEM supplemented with 1% BSA for 1 hour. Again, washing was performed three times with PBS for three min, and then cells were fixed with a fixative containing ethanol and acetone at 2:1 for 3 min. The cells were mounted in Mounting medium supplemented with DAPI. FIGS. 8 through 10 illustrate the results.

GPC-3 protein [2] = molecular target: T1, GPC-3 protein (Homo sapiens, UniProt P51654); assay: Overlay assay of FITC-labeled peptide on cell lines in which GPC-3 protein was expressed; design: the human hepatocellular carcinoma cell line HepG2 in which GPC-3 protein was expressed; endogenous in cells; host or cells: HepG2, Huh-7, SkMel28 (ATCC)
T1 sequence (P51654 25-554): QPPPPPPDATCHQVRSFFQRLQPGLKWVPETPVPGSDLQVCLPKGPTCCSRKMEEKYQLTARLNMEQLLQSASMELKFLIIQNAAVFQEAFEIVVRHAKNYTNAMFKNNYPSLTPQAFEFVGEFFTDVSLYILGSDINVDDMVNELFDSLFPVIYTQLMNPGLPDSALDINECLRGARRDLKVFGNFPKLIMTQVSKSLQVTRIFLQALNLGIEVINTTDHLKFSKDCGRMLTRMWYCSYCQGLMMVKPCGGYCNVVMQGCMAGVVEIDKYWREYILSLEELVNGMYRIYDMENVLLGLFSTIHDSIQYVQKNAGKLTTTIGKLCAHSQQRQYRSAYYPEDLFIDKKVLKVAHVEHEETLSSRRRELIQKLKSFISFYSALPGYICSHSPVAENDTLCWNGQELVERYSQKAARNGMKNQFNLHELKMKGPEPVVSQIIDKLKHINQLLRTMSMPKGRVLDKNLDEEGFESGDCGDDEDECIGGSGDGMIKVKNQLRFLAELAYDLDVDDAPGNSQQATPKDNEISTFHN
Procedure: as §1

GPC-3 protein [3] = molecular target: T1, GPC-3 protein; assay: Overlay assay on HepG2 in competition with equivalent peptide to which FITC was not bound; design: the human hepatocellular carcinoma cell line HepG2 in which GPC-3 protein was expressed; endogenous in cells; host or cells: HepG2; settings: competition with unlabeled peptide for bonding to GPC-3 protein
Procedure: as §1
FIG. 9 illustrates image results obtained from reaction of a peptide (FITC-RLNVGGTYFLTTRQ) containing the amino acid sequence of SEQ ID No.1 to the human hepatocellular carcinoma cell line HepG2 in which GPC-3 protein was expressed with an equivalent peptide to which FITC were not bound. […] Because a peptide in which a fluorescent material was not labeled and a fluorescent material labeled peptide were competing for bonding to GPC-3 protein, a fluorescent material labeled peptide became less likely to bind to GPC-3.

Substance	fluorescence by FITC (overlay, FIG. 8) ([1]; renal cell line in which GPC-3 protein was not expressed: Cos-7)	fluorescence by FITC (overlay, FIG. 8) (GPC-3 protein [2]; cell lines in which GPC-3 protein was expressed: HepG2, SkMe128, HEK-293 with GPC-3)	fluorescence by FITC in presence of equivalent peptide to which FITC was not bound (FIG. 9) (GPC-3 protein [3])	fluorescence by FITC (overlay, FIG. 7) ([1]; renal cell lines in which GPC-3 protein was not expressed: HEK-293, Cos-7)	fluorescence by FITC (overlay, FIG. 7) (GPC-3 protein [2]; cell lines in which GPC-3 protein was expressed: HepG2, Huh-7, SkMe128, HEK-293 with GPC-3)
FITC-YFLTTRQ ({FITC}-YFLTTRQ)	fluorescence was not observed	fluorescence by FITC was observed	–	–	–
FITC-RLNVGGTYFLTTRQ ({FITC}-RLNVGGTYFLTTRQ)	–	–	fluorescence was not observed	fluorescence was not observed	fluorescence by FITC was observed
